Test results from patent US20120082676A1 (RESEARCH FOUNDATION OF STATE UNIVERSITY OF NEW YORK, published 2012).

How the values were obtained:
[1] = target: T1, high molecular weight kininogen (HK) (UniProt P01042 19-644); assay: solid phase ELISA, peptide on the plate
T1 sequence (looked up): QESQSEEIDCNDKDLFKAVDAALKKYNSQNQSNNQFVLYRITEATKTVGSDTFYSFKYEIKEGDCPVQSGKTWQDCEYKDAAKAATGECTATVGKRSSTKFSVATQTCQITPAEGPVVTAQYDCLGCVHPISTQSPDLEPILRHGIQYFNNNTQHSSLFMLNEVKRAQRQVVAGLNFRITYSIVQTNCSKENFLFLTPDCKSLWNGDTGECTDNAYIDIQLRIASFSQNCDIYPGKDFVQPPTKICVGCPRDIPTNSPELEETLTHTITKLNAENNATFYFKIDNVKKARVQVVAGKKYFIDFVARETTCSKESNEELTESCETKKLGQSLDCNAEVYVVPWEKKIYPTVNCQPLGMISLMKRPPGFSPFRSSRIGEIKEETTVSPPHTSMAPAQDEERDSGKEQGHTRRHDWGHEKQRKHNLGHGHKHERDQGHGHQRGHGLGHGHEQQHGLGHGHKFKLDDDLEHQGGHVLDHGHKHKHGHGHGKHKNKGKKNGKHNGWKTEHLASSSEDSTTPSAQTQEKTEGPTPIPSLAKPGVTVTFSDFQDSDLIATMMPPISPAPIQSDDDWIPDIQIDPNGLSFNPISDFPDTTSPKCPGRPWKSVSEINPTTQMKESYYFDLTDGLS
From the text: Several peptides were synthesized that correspond with the gC1q-R domains of very high negative charge and, which based on their location in the crystal structure on the solution-face, are hypothesized to interact with solution-phase ligands.

[2] = target: T1, high molecular weight kininogen (HK); assay: HK binding to recombinant gC1q-R deletion mutants (FIG. 7)

EDEVGQEDEAESD (Synthetic peptide coated on ELISA wells) [gC1q-R peptide (amino acids 190-202)]: binds [1].

B1: gC1q-R deletion mutant lacking residues 204-218 (receptor, human, UniProt Q07021 74-282, looked up)
chain: LHTDGDKAFVDFLSDEIKEERKIQKHKTLPKMSGGWELELNGTEAKLVRKVAGEKITVTFNINNSIPPTFDGEEEPSQGQKVEEQEPELTSTPNFVVEVIKNDDGKKALVLDCHYPEDEVGQEDEAESDIWKDTNYTLNTDSLDWALYDHLMDFLADRGVDNTFADELVELSTALEHQEYITFLEDLKSFVKSQ
notes: also called mutant lacking these residues
B1: no binding [2].
